{"source": "paper PMC8091058", "about": "“Distinct intramolecular interactions regulate autoinhibition of vinculin binding in αT-catenin and αE-catenin” (The Journal of Biological Chemistry, 2021)", "binders": {"B1": {"name": "vinculin D1 (aa 1–259) (domain or fragment, UniProt P12003 1-259, looked up)", "chain": "MPVFHTRTIESILEPVAQQISHLVIMHEEGEVDGKAIPDLTAPVSAVQAAVSNLVRVGKETVQTTEDQILKRDMPPAFIKVENACTKLVRAAQMLQADPYSVPARDYLIDGSRGILSGTSDLLLTFDEAEVRKIIRVCKGILEYLTVAEVVETMEDLVTYTKNLGPGMTKMAKMIDERQQELTHQEHRVMLVNSMNTVKELLPVLISAMKIFVTTKNTKSQGIEEALKNRNFTVEKMSAEINEIIRVLQLTSWDEDAWA", "notes": "vinculin D1 fragment, aa 1-259, the first 2 four-helix bundles; in pGEX-TEV; also called vinculin aa 1 to 259 (D1); vinculin N-terminus; source: E. coli BL21-Gold, purified (glutathione-agarose, TEV cleavage, Mono Q or Mono S, S200)"}}, "key": {"[1]": {"molecular_target": "2I27–αT-catenin M1-M3 (aa 259–667)-2I27 (UniProt Q65CL1)", "assay": "ITC; vinculin D1 injected into αT-catenin or αE-catenin fragment (or αT-catenin head–β-catenin complex) in the cell; 25 °C; 20 mM Hepes pH 8.0, 150 mM NaCl, 1 mM TCEP"}, "[2]": {"molecular_target": "T1, αE-catenin M1-M2 (aa 273–510) (Mus musculus, UniProt P26231 273-510)", "T1 construct": "αE-catenin, Mus musculus, M1-M2, aa 273-510; in pGEX-TEV; also called αE-catenin M1-M2 (273–510); source: E. coli BL21-Gold, purified (glutathione-agarose, TEV cleavage, Mono Q or Mono S, S200)", "T1 sequence (looked up)": "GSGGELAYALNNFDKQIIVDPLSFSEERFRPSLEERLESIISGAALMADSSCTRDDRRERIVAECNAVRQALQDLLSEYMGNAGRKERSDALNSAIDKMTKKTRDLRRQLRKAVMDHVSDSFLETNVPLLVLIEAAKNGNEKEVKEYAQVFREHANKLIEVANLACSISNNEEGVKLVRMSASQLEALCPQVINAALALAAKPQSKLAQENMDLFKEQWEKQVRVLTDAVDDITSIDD", "assay": "ITC; vinculin D1 injected into αT-catenin or αE-catenin fragment (or αT-catenin head–β-catenin complex) in the cell; 25 °C; 20 mM Hepes pH 8.0, 150 mM NaCl, 1 mM TCEP", "details": "both partners purified"}, "[3]": {"molecular_target": "T2, αT-catenin M1-M3 (aa 260–626) (Mus musculus, UniProt Q65CL1 260-626)", "T2 construct": "αT-catenin, Mus musculus, M1-M3, aa 260-626; in pGEX-TEV; also called αT-catenin M-region; αT-catenin M1-M3 (260–626); source: E. coli BL21-Gold, purified (glutathione-agarose, TEV cleavage, Mono Q or Mono S, S200)", "T2 sequence (looked up)": "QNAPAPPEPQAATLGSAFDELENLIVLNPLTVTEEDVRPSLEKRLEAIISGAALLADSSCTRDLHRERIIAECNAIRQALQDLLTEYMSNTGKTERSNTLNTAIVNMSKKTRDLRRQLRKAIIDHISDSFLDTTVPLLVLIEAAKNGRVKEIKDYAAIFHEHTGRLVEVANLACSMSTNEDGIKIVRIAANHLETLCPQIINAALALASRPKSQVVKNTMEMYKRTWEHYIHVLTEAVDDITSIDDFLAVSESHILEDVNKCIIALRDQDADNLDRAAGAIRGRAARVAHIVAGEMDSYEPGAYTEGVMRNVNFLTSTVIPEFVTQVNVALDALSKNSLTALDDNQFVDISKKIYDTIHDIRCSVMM", "assay": "ITC; vinculin D1 injected into αT-catenin or αE-catenin fragment (or αT-catenin head–β-catenin complex) in the cell; 25 °C; 20 mM Hepes pH 8.0, 150 mM NaCl, 1 mM TCEP", "details": "both partners purified"}, "[4]": {"molecular_target": "T3, αE-catenin M1-M3 (aa 273–651) (Mus musculus, UniProt P26231 273-651)", "T3 construct": "αE-catenin, Mus musculus, M1-M3, aa 273-651; in pGEX-TEV; also called αE-catenin M1-M3 (273–651); source: E. coli BL21-Gold, purified (glutathione-agarose, TEV cleavage, Mono Q or Mono S, S200)", "T3 sequence (looked up)": "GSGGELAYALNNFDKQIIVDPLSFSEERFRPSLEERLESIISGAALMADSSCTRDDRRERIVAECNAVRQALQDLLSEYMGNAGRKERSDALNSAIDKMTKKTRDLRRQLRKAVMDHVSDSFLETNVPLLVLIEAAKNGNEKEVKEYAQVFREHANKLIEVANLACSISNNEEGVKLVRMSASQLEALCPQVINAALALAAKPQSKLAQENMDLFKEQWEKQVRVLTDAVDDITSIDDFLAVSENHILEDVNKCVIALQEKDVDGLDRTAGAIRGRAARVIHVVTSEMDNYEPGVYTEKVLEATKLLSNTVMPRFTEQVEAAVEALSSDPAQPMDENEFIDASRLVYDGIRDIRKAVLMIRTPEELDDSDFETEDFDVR", "assay": "ITC; vinculin D1 injected into αT-catenin or αE-catenin fragment (or αT-catenin head–β-catenin complex) in the cell; 25 °C; 20 mM Hepes pH 8.0, 150 mM NaCl, 1 mM TCEP", "details": "both partners purified"}, "[5]": {"molecular_target": "T2, αT-catenin M1-M3 (aa 260–626)", "assay": "ITC; vinculin D1 titrated into an equimolar mixture of αT-catenin N1-N2 and M1-M3; 25 °C; 20 mM Hepes pH 8.0, 150 mM NaCl, 1 mM TCEP", "details": "both partners purified"}}}
{"binder": "B1", "values": [{"measurement": "Kd", "setting": "[1]", "value": 245, "unit": "nM"}, {"measurement": "dH", "setting": "[1]", "value": 4.8, "unit": "kcal/mol"}, {"measurement": "dH", "setting": "[2]", "value": "8.7 ± 0.2", "unit": "kcal/mol"}, {"measurement": "Kd", "setting": "[3]", "value": "60.5 ± 19.2", "unit": "nM"}, {"measurement": "dH", "setting": "[3]", "value": "-2.2 ± 1", "unit": "kcal/mol"}, {"measurement": "Kd", "setting": "[4]", "value": "10400 ± 4590", "unit": "nM"}, {"measurement": "dH", "setting": "[4]", "value": "12.8 ± 5.2", "unit": "kcal/mol"}, {"measurement": "Kd", "setting": "[5]", "value": "50.1 ± 17.5", "unit": "nM"}, {"measurement": "dH", "setting": "[5]", "value": "-3.1 ± 0.1", "unit": "kcal/mol"}]}
